For assay [1], the target named is T1, human IL13Rα2 on cells (human, UniProt Q14627 27-380).
T1 construct: whole, on cells; also called hIL13Rα2
T1 sequence (looked up): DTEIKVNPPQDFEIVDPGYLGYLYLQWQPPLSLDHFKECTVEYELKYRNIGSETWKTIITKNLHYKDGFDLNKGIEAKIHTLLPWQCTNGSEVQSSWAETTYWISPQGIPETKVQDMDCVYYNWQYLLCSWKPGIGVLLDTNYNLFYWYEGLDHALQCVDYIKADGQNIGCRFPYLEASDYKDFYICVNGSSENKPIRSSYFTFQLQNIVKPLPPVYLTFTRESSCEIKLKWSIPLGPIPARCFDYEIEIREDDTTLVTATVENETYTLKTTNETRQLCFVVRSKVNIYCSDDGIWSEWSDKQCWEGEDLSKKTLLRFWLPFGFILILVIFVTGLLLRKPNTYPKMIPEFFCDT
Briefly: flow cytometry control; cell line not stated. (In general: In flow cytometry, cells or beads pass a laser one at a time.)

Assay [2] addresses T1, human IL13Rα2 on cells. Briefly: flow cytometry; cell line not stated.
Assay [3] addresses T2, recombinant human IL13Rα2 fused to an Fc domain of human IgG1 (hIL13Rα2-Fc) (human, UniProt Q14627 27-343, limits assumed).
T2 construct: Bought construct (R&D Systems); The Fc can be removed by Factor Xa, so a Factor Xa site lies between the parts; not shown: Fc domain of human IgG1
T2 sequence (looked up): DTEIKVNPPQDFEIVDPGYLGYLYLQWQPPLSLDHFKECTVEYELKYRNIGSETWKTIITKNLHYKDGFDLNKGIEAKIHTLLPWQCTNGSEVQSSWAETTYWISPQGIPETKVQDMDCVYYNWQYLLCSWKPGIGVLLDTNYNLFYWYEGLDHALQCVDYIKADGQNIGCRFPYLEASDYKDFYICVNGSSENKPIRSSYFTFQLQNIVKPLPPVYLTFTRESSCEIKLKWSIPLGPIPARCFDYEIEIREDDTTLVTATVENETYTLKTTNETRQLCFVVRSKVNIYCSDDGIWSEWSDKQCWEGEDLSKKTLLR
Briefly: Octet KD relative to clone 1 parental. The procedure:
(§1) Two clones were chosen for humanization. […] Each humanized nanobody was analyzed by Octet at 500 nM on an Ni-NTA sensor, with three fold dilutions of antigen (IL13Rα2-Fc) at 125 nM, 41.66 nM, and 13.86 nM. A summary of the octed measurements for each of the humanized variants depicted in FIG. 1 is shown in Table 1 (clone 1) and Table 2 (clone 2).
A general note: BLI is a label-free optical method that tracks binding on a fibre tip over time.

The target of assay [4] is T2, recombinant human IL13Rα2 fused to an …. Nature of the assay: Octet (BLI); nanobody on Ni-NTA sensor, IL13Rα2-Fc in solution. The procedure: as §1

Positions count from the first letter of the chain named.

“2o Ab (secondary antibody alone, flow cytometry control)” displayed a Flow Cytometry MFI in the assay with human IL13Rα2 on cells [1] of 90.4 MFI.
Still for that read-out and setting: the figure for “Isotype Control (flow cytometry control) (antibody)” is 21.4 MFI.

B1: Humanized Llama single domain anti-IL13Rα2 Clone 1-h10 (H2-LSD1) (VHH)
VHH: EVQLVESGGGLVQPGGSLRLSCAASGFTSDYYIMGWVRQAPGKGLEWVSCISSKYANTYYADSVKGRFTISRDNAKNTLYLQMNSLRPEDTAVYYCAADTRRYTCPDIATMHRNFDSWGQGTLVTVSS
notes: Captured on a Ni-NTA sensor, so a His tag is implied; the tag is not described
The term Kd denotes the concentration at which binding is half-saturated. Consider B1, for which the “Flow Cytometry MFI” value with human IL13Rα2 on cells [2] was 639 MFI. The KD fold difference in assay [3] turned out to be 2.3 fold. The Kd in assay [4] was 1.46 nM.

B2: anti-IL13Rα2 Clone 1 humanized variant 1-h9 (VHH)
VHH: B1 VHH with V37F
As for B2, the “Flow Cytometry MFI” value with human IL13Rα2 on cells [2] worked out at 842 MFI. Besides, in assay [3], the KD fold difference is 3 fold. Further, the Kd in assay [4] is 1.91 nM.
